Residue numbers refer to the chain shown, from its start.
T1: human CD131 on 293T/CD131 cells (human, UniProt P32927 17-897)
T1 construct: whole, on cells; also called hCD131
T1 sequence (looked up): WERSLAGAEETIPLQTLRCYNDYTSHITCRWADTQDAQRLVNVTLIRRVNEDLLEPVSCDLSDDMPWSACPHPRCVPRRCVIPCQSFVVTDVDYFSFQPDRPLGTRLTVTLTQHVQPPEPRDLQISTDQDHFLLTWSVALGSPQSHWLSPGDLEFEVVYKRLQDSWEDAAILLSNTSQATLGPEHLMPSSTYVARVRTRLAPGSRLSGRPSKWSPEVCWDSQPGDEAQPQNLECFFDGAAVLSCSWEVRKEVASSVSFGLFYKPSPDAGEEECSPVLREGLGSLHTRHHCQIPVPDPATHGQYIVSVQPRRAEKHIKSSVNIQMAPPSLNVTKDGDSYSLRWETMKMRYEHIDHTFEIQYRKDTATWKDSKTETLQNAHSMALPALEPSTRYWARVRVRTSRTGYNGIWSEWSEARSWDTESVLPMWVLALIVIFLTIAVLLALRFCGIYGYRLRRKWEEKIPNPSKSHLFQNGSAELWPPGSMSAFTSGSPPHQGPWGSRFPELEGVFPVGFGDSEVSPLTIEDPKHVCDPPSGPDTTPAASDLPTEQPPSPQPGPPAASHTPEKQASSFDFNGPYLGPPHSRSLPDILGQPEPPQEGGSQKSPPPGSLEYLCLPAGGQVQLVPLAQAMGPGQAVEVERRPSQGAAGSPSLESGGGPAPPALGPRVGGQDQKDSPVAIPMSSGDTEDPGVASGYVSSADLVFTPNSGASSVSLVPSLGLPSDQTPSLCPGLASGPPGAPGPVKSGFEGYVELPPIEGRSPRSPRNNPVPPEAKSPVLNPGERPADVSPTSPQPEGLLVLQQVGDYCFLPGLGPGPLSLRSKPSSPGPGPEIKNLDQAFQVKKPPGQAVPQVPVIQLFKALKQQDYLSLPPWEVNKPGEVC

T2: soluble hetero-EPOR (EPOR-CD131-Fc) (human, UniProt P19235 25-250; P32927 17-443)
T2 construct: extracellular domain; also called soluble EPOR-CD131-Fc; not shown: human Fc (captured by anti-human Fc)
T2 sequence (looked up) 1: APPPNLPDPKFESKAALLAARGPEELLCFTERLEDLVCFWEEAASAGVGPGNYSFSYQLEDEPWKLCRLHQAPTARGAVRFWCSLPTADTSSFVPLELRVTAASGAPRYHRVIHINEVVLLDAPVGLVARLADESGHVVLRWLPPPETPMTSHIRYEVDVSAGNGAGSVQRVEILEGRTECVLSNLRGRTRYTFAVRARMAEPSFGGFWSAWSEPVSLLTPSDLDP
T2 sequence (looked up) 2: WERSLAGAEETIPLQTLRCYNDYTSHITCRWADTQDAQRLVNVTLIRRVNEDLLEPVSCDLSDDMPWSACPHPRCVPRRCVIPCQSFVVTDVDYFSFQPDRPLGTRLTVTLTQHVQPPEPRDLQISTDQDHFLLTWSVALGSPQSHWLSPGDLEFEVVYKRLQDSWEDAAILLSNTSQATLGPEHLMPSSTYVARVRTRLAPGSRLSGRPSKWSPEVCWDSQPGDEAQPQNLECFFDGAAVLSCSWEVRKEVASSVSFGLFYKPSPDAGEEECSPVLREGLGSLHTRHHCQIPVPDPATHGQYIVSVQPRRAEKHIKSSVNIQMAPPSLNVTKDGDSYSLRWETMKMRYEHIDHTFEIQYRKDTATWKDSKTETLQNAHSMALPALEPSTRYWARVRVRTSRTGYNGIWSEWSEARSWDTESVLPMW

T3: hCD131-Fc (IME021, inhouse) (human, UniProt P32927 17-443, limits assumed)
T3 construct: also called soluble CD131 subunit of hetero-EPOR; not shown: Fc
T3 sequence (looked up): T2 sequence (looked up) 2

B1: hybridoma clone M2 (antibody, V domains shown)
VH: QVQLVESGGGLVKPGGSLRLSCAASGFTFSDSYMSWIRQAPGKGLEWVSYISNSGSYMYYADSVKGRFTISRDNAKNSLYLQMNNLRAEDTAVYYCARDKLGIGDYWGQGTLVTVSS
VL: DIQMTQSPSSLSASVGDRVTITCRASQGIRNDLGWFQQKPGKAPKRLIYAASRLQSGVPSRFSGSGSGTEFTLTISSLQPEDFATYCCLQHHTYPPTFGQGTKVEIK
notes: Hybridoma from ATX-GK mice; tested as supernatant (BLI) and purified (cell staining, Stat5 assay); also called EPORab - M2
B2: hybridoma clone M41 (antibody, V domains shown)
VH: QVQLVESGGGLVQPGRSLRLSCAASGFTFDDYAIHWVRQAPGKGLEWVSGISYNSENIGYADSVKGRFTISRDNAKNSLYLQMNSLRSEDTALYYCAKDMFLTWFSSFDYWGQGTLVTVSS
VL: ETKLTQSPGTLSLSPGERTTLSCRASQSISNNYLAWYQQKPGQAPRLLIYRASTRATGIPDRFSGSGSGTDFTLTIRRLEPEDFAVYYCQRYGRSPLTFGGGTKVEIK
notes: Hybridoma from ATX-GK mice; tested as supernatant (BLI) and purified (cell staining, Stat5 assay); also called EPORab - M41
B3: EPORab - M1 (antibody, V domains shown)
VH: QVQLQESGPGLVKPSQTLSLTCTVSGGSISSGGYYWSWIRQHPGKGLEWIGNIYYSGNPYYNPSLKSRLIISVDTSKNQFSLRLNSVTAADTAVYYCATFYYGSGSYYNEDYWGQGTLVTVSS
VL: B1 VL with N31I, F36Y, R53S, Q55K, A84T, C87F, H92N, T93S, P96Y, V104L
notes: hybridoma supernatant, ATX-GK mouse; also called hybridoma clone M1
B4: EPORab - M2 (antibody, V domains shown)
VH: B1 VH
VL: B1 VL
notes: hybridoma supernatant, ATX-GK mouse; also called hybridoma clone M2
B5: EPORab - M9 (antibody, V domains shown)
VH: QVQLQESGPGLVKPSQTLSLTCDISGDSVSSNSAAWNWIRQSPSRGLEWLGRTYYRSKWYNDYAVAVKSRITINPDTSKNQFSLQLNSVTPEDTAVYYCARESSGWYEDYYYYYMDVWGKGTTVTVSS
VL: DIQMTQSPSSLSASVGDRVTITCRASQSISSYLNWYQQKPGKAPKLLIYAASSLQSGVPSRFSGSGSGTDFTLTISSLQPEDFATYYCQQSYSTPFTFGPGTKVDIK
notes: hybridoma supernatant, ATX-GK mouse; also called hybridoma clone M9
B6: EPORab - M19 (antibody, V domains shown)
VH: QLQLQESGPGLVKPSETLSLTCTVSGGSISSSNHYWGWIRQPPGKGLEWIGTLYYSGSTYYEPSLKSRVTISVDTSMNQFSLNLSSVTATDTAVYNCARGDRYGPFDYWGQGTLVTVSS
VL: DIVMTQSPSSLSASVGDRVTITCRASQGIRDDLGWYQQKPEKAPKRLICAASSLQSGVPSRFSGSGSGTEFTLTISSLQPEDFATYYCLQYNRYPWTFGQGTKVEIK
notes: hybridoma supernatant, ATX-GK mouse; also called hybridoma clone M19
B7: EPORab - M24 (antibody, V domains shown)
VH: EVQLVESGGGLVKPGGSLRLSCAASGFTFTNAWMNWVRQAPGKGLEWIGRIKSKTAGETTDYAAPVKGRFTISRDDSKNTLYLQMNSLKTEDTAVYYCTTDPDYGDPYYYYYFMDVWGKGTTVTVSS
VL: DIQMTQSPSSLSASIGDRVTISCRASQSISSYLNWYQQKPGKAPKLLIYGASSLQSGVPSRFSGSGSGTDFTLTISSLQPEDFATYYCQQSYSLPLTFGGGTKVEIK
notes: hybridoma supernatant, ATX-GK mouse; also called hybridoma clone M24
B8: EPORab - M26 (antibody, V domains shown)
VH: QVQLVQSGVEVKKPGASVKVSCKASGYAFSNNDISWVRQAPGQGLEWMAWITTSNGNTNYAPKLQGRVTMTTDTSTSTAYMELRSLKSDDTAVYYCARGGRTGYFDYWGQGTLVTVSS
VL: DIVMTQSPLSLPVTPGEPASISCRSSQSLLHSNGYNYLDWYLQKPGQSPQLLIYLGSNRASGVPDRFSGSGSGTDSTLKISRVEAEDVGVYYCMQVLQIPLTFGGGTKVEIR
notes: hybridoma supernatant, ATX-GK mouse; also called hybridoma clone M26
B9: EPORab - M37 (antibody, V domains shown)
VH: QVQLQESGPGLVKPSGTLSLTCAVSGGSITTNNWWSWVRQSPGKGLEWIGEIYHSGNTNYNPSLKSRVTMSVDKSKNQFSLNLNSVIVADTAVYYCASALGTYYGAFDTWGQGTMVTVSA
VL: DIQMTQSPSSLSASVGDRVTITCRASQSISNYLNWYQQKPGKAPKLLIYAASSLQSGVPSRFSGSGSGTDFTLTISSLQPEDFTTYYCQQSYGTPYTFGQGAKLQIK
notes: hybridoma supernatant, ATX-GK mouse; also called hybridoma clone M37
B10: EPORab - M38 (antibody, V domains shown)
VH: QVQLVESGGGVVQPGRSLRLSCAASGFTFSSYGMHWVRQAPGKGLEWVAFIWYDGRNKNYVDSVKGRFTISRDNSKNTLYLQMNSLRAEDTAVYYCARDRGDYVFDYWGQGTLVTVSS
VL: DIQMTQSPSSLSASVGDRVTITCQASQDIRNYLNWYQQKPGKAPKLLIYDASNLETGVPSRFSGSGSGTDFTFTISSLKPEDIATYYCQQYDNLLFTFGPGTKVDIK
notes: hybridoma supernatant, ATX-GK mouse; also called hybridoma clone M38
B11: EPORab - M41 (antibody, V domains shown)
VH: B2 VH
VL: B2 VL
notes: hybridoma supernatant, ATX-GK mouse; also called hybridoma clone M41
B12: EPORab - M43 (antibody, V domains shown)
VH: QVQLQESGPGLVKPSGTLSLTCAVSGGSISSSNWWSWVRQPPGKGLEWIGEIYHSGSINYNPSLKSRVTISVDKSKNQFSLKLTSVTAADTAVYYCASALGNYYGAFDLWGQGTMVTVSS
VL: B9 VL with Q3V, S28T, N31S, Y49C, S56G, T84A, T85P, G93S, A102T, Q105E
notes: hybridoma supernatant, ATX-GK mouse; also called hybridoma clone M43
B13: EPORab - M52 (antibody, V domains shown)
VH: QLQLQESGPGLAKPSETLSLTCTVSGVSISSNSYYWGWIRQPPGKGLEWIGNIYHSGRTYYNPSLRSRVTISVDTSKNQFSLKLNSVTAADTAVYYCARGYSYGAFDYWGQGTLVTVSS
VL: B1 VL with F36Y, R53S, V58I, C87Y, H92N, T93N, P96W
notes: hybridoma supernatant, ATX-GK mouse; also called hybridoma clone M52
B14: EPORab - M54 (antibody, V domains shown)
VH: QLQLQESGPGLVKPSETLSLTCSVSGGSISSSGYYWGWIRQPPGKGLDWIGTIYYSGNTNYNPSLNSRVTISVDTSRNQFSLKLRSVTAADTAVYYCARGYSYGPFDYWGQGTLVTVSS
VL: EIVMTQSPATLSVSPGERATLSCRASQSVSSNLAWYQLKPGQAPRLLIYGASTRATGIPARFSGSGSGTEFTLTISSLQSEDFAVYYCHPYNNWPLTFGGGTKVEIK
notes: hybridoma supernatant, ATX-GK mouse; also called hybridoma clone M54
B15: EPORab - M71 (antibody, V domains shown)
VH: QVQLVESGAEVKKPRASVKVSCKTSGYTFTRHYMHWVRQAPGQGLEWMGIINPNNNSTSYAQKFQGRITMTRDTSTSTVYMELSSLRSEDTAVYYCARFRIVGTTLYFDYWGQGTLVTVSS
VL: B14 VL
notes: hybridoma supernatant, ATX-GK mouse; also called hybridoma clone M71
B16: EPORab - M80 (antibody, V domains shown)
VH: B1 VH
VL: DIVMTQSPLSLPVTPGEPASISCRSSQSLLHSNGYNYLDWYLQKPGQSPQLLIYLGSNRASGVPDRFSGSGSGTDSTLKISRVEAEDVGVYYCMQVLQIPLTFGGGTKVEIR
notes: hybridoma supernatant, ATX-GK mouse; printed VH equals that of M2; also called hybridoma clone M80
B17: EPORab - M87 (antibody, V domains shown)
VH: QVQLVQSGAEVKKPGASMKVSCKASGYTFTQNHISWVRQAPGQGLEWMGWISAYSGNTNYAWKFQGRVTMTTDTSTNTAYMELRSLRSDDTAVYYCARDRGNWNDFAYWGRGTLVTVSS
VL: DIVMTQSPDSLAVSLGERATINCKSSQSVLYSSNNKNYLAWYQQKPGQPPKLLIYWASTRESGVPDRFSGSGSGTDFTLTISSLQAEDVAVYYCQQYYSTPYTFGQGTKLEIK
notes: hybridoma supernatant, ATX-GK mouse; also called hybridoma clone M87
B18: hybridoma clone M26 (antibody, V domains shown)
VH: B8 VH
VL: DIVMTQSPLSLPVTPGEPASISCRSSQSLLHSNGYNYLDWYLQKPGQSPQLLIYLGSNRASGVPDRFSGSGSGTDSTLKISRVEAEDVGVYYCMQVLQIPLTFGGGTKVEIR
notes: Hybridoma from ATX-GK mice; also called EPORab - M26

biological target: T1, human CD131 on 293T/CD131 cells; assay: flow cytometry on 293T/CD131 cells, purified antibody, PE labeled secondary antibody

Row | Binder | binding result
1 | B1 | no binding
2 | B2 | no binding

biological target: T2, soluble hetero-EPOR (EPOR-CD131-Fc); assay: Octet BLI, EPOR-CD131-Fc on anti-human Fc sensor, 10 nM EPO +/- hybridoma supernatant; competitor EPO

Row | Binder | % Inhibition [%]
3 | B3 | 31.2
4 | B4 | 93.6
5 | B5 | 18.1
6 | B6 | 10.4
7 | B7 | 9.5
8 | B8 | 31.3
9 | B9 | -7.1
10 | B10 | 0.5
11 | B11 | 18.7
12 | B12 | -11.4
13 | B13 | 7.4
14 | B14 | 16
15 | B15 | 0.1
16 | B16 | -1.8
17 | B17 | 11.5

biological target: T3, hCD131-Fc (IME021, inhouse); assay: Octet BLI, antibody from supernatant captured on anti-mouse Fc biosensors, 30 nM soluble receptor Fc fusion

Row | Binder | binding result
18 | B18 | binds
